Values belong to the binder of their own block, whether it stands above or below them. Numbered stars: 1 amine (or outer) side, 2 acyl side, 3 side chain; on linkers, the order of the positions; unused ones are H or OH. Bridge positions count the residues as written; N and C are the ends. Side chains are listed from the residue outwards. Ends that are not written are not given here. * marks the point of attachment. C20 diacid = O=C(O)CCCCCCCCCCCCCCCCCCC(=O)*; γGlu = O=C(O)[C@H](CCC(=O)[*:2])N[*:1]
Target: T1, human calcitonin receptor (human, UniProt P30988 25-474)
T1 sequence (looked up): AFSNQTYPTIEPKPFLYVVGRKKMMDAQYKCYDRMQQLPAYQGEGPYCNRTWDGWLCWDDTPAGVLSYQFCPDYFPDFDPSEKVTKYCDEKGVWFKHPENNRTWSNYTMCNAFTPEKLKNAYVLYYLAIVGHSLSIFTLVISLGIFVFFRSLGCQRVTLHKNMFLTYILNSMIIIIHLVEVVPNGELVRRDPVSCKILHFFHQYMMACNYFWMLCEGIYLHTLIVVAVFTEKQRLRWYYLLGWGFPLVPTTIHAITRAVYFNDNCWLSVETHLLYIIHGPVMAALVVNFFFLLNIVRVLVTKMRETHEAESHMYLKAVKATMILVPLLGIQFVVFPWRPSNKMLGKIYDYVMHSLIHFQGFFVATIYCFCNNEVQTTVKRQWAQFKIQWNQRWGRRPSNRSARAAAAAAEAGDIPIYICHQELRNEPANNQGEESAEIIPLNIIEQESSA
Assay: cell-based or functional assay

B1: N^ε1-[(4S)-4-carboxy-4-(19-carboxynonadecanoylamino)butanoyl]-[His14,Arg17,Pro21,Pro27,Pro31]-h-amylin (peptide)
peptide: K([γGlu-C20 diacid])CNTATCATQRLAHFLRHSSPNFGAIPSSTPVGSNTY-NH2
modifications: disulfide 2-7; N-terminus assumed
SMILES: CC[C@H](C)[C@H](NC(=O)[C@H](C)NC(=O)CNC(=O)[C@H](Cc1ccccc1)NC(=O)[C@H](CC(N)=O)NC(=O)[C@@H]1CCCN1C(=O)[C@H](CO)NC(=O)[C@H](CO)NC(=O)[C@H](Cc1c[nH]cn1)NC(=O)[C@H](CCCNC(=N)N)NC(=O)[C@H](CC(C)C)NC(=O)[C@H](Cc1ccccc1)NC(=O)[C@H](Cc1c[nH]cn1)NC(=O)[C@H](C)NC(=O)[C@H](CC(C)C)NC(=O)[C@H](CCCNC(=N)N)NC(=O)[C@H](CCC(N)=O)NC(=O)[C@@H](NC(=O)[C@H](C)NC(=O)[C@@H]1CSSC[C@H](NC(=O)[C@@H](N)CCCCNC(=O)CC[C@H](NC(=O)CCCCCCCCCCCCCCCCCCC(=O)O)C(=O)O)C(=O)N[C@@H](CC(N)=O)C(=O)N[C@@H]([C@@H](C)O)C(=O)N[C@@H](C)C(=O)N[C@@H]([C@@H](C)O)C(=O)N1)[C@@H](C)O)C(=O)N1CCC[C@H]1C(=O)N[C@@H](CO)C(=O)N[C@@H](CO)C(=O)N[C@H](C(=O)N1CCC[C@H]1C(=O)N[C@H](C(=O)NCC(=O)N[C@@H](CO)C(=O)N[C@@H](CC(N)=O)C(=O)N[C@H](C(=O)N[C@@H](Cc1ccc(O)cc1)C(N)=O)[C@@H](C)O)C(C)C)[C@@H](C)O
notes: also called compound 62
hCTR funct. EC50: 0.539 nM

B3: N^ε1N^ε1-[(4S)-4-carboxy-4-(19-carboxynonadecanoylamino)butanoyl]-[His14,Arg17,Pro21,Pro27,Pro34]-h-amylin (peptide)
peptide: K([γGlu-C20 diacid])CNTATCATQRLAHFLRHSSPNFGAIPSSTNVGPNTY-NH2
modifications: disulfide 2-7; N-terminus assumed
SMILES: CC[C@H](C)[C@H](NC(=O)[C@H](C)NC(=O)CNC(=O)[C@H](Cc1ccccc1)NC(=O)[C@H](CC(N)=O)NC(=O)[C@@H]1CCCN1C(=O)[C@H](CO)NC(=O)[C@H](CO)NC(=O)[C@H](Cc1c[nH]cn1)NC(=O)[C@H](CCCNC(=N)N)NC(=O)[C@H](CC(C)C)NC(=O)[C@H](Cc1ccccc1)NC(=O)[C@H](Cc1c[nH]cn1)NC(=O)[C@H](C)NC(=O)[C@H](CC(C)C)NC(=O)[C@H](CCCNC(=N)N)NC(=O)[C@H](CCC(N)=O)NC(=O)[C@@H](NC(=O)[C@H](C)NC(=O)[C@@H]1CSSC[C@H](NC(=O)[C@@H](N)CCCCNC(=O)CC[C@H](NC(=O)CCCCCCCCCCCCCCCCCCC(=O)O)C(=O)O)C(=O)N[C@@H](CC(N)=O)C(=O)N[C@@H]([C@@H](C)O)C(=O)N[C@@H](C)C(=O)N[C@@H]([C@@H](C)O)C(=O)N1)[C@@H](C)O)C(=O)N1CCC[C@H]1C(=O)N[C@@H](CO)C(=O)N[C@@H](CO)C(=O)N[C@H](C(=O)N[C@@H](CC(N)=O)C(=O)N[C@H](C(=O)NCC(=O)N1CCC[C@H]1C(=O)N[C@@H](CC(N)=O)C(=O)N[C@H](C(=O)N[C@@H](Cc1ccc(O)cc1)C(N)=O)[C@@H](C)O)C(C)C)[C@@H](C)O
notes: also called compound 67
hCTR funct. EC50: 0.354 nM

B4: N^ε1-[(4S)-4-carboxy-4-[[(4S)-4-carboxy-4-(19-carboxynonadecanoylamino)butanoyl]amino]butanoyl]-[Glu14,Arg17,Pro21,Pro27,Arg34]-h-amylin (peptide)
peptide: K([γGlu-γGlu-C20 diacid])CNTATCATQRLAEFLRHSSPNFGAIPSSTNVGRNTY-NH2
modifications: disulfide 2-7; N-terminus assumed
SMILES: CC[C@H](C)[C@H](NC(=O)[C@H](C)NC(=O)CNC(=O)[C@H](Cc1ccccc1)NC(=O)[C@H](CC(N)=O)NC(=O)[C@@H]1CCCN1C(=O)[C@H](CO)NC(=O)[C@H](CO)NC(=O)[C@H](Cc1c[nH]cn1)NC(=O)[C@H](CCCNC(=N)N)NC(=O)[C@H](CC(C)C)NC(=O)[C@H](Cc1ccccc1)NC(=O)[C@H](CCC(=O)O)NC(=O)[C@H](C)NC(=O)[C@H](CC(C)C)NC(=O)[C@H](CCCNC(=N)N)NC(=O)[C@H](CCC(N)=O)NC(=O)[C@@H](NC(=O)[C@H](C)NC(=O)[C@@H]1CSSC[C@H](NC(=O)[C@@H](N)CCCCNC(=O)CC[C@H](NC(=O)CC[C@H](NC(=O)CCCCCCCCCCCCCCCCCCC(=O)O)C(=O)O)C(=O)O)C(=O)N[C@@H](CC(N)=O)C(=O)N[C@@H]([C@@H](C)O)C(=O)N[C@@H](C)C(=O)N[C@@H]([C@@H](C)O)C(=O)N1)[C@@H](C)O)C(=O)N1CCC[C@H]1C(=O)N[C@@H](CO)C(=O)N[C@@H](CO)C(=O)N[C@H](C(=O)N[C@@H](CC(N)=O)C(=O)N[C@H](C(=O)NCC(=O)N[C@@H](CCCNC(=N)N)C(=O)N[C@@H](CC(N)=O)C(=O)N[C@H](C(=O)N[C@@H](Cc1ccc(O)cc1)C(N)=O)[C@@H](C)O)C(C)C)[C@@H](C)O
notes: also called compound 88
hCTR funct. EC50: 6.55 nM

B6: N^ε1-[(4S)-4-carboxy-4-(19-carboxynonadecanoylamino)butanoyl]-[His14,Arg17,Pro21,Pro27]-h-amylin (peptide)
peptide: K([γGlu-C20 diacid])CNTATCATQRLAHFLRHSSPNFGAIPSSTNVGSNTY-NH2
modifications: disulfide 2-7; N-terminus assumed
SMILES: CC[C@H](C)[C@H](NC(=O)[C@H](C)NC(=O)CNC(=O)[C@H](Cc1ccccc1)NC(=O)[C@H](CC(N)=O)NC(=O)[C@@H]1CCCN1C(=O)[C@H](CO)NC(=O)[C@H](CO)NC(=O)[C@H](Cc1c[nH]cn1)NC(=O)[C@H](CCCNC(=N)N)NC(=O)[C@H](CC(C)C)NC(=O)[C@H](Cc1ccccc1)NC(=O)[C@H](Cc1c[nH]cn1)NC(=O)[C@H](C)NC(=O)[C@H](CC(C)C)NC(=O)[C@H](CCCNC(=N)N)NC(=O)[C@H](CCC(N)=O)NC(=O)[C@@H](NC(=O)[C@H](C)NC(=O)[C@@H]1CSSC[C@H](NC(=O)[C@@H](N)CCCCNC(=O)CC[C@H](NC(=O)CCCCCCCCCCCCCCCCCCC(=O)O)C(=O)O)C(=O)N[C@@H](CC(N)=O)C(=O)N[C@@H]([C@@H](C)O)C(=O)N[C@@H](C)C(=O)N[C@@H]([C@@H](C)O)C(=O)N1)[C@@H](C)O)C(=O)N1CCC[C@H]1C(=O)N[C@@H](CO)C(=O)N[C@@H](CO)C(=O)N[C@H](C(=O)N[C@@H](CC(N)=O)C(=O)N[C@H](C(=O)NCC(=O)N[C@@H](CO)C(=O)N[C@@H](CC(N)=O)C(=O)N[C@H](C(=O)N[C@@H](Cc1ccc(O)cc1)C(N)=O)[C@@H](C)O)C(C)C)[C@@H](C)O
notes: also called compound 70
hCTR funct. EC50: 0.715 nM

Other lines, results leading:

hCTR funct. EC50: 11.2 nM
B2: N^ε1-[(4S)-4-carboxy-4-[[(4S)-4-carboxy-4-(19-carboxynonadecanoylamino)butanoyl]amino]butanoyl]-[Glu14,Arg17,Pro21,Pro27,Arg35]-h-amylin (peptide)
peptide: K([γGlu-γGlu-C20 diacid])CNTATCATQRLAEFLRHSSPNFGAIPSSTNVGSRTY-NH2
modifications: disulfide 2-7; N-terminus assumed
SMILES: CC[C@H](C)[C@H](NC(=O)[C@H](C)NC(=O)CNC(=O)[C@H](Cc1ccccc1)NC(=O)[C@H](CC(N)=O)NC(=O)[C@@H]1CCCN1C(=O)[C@H](CO)NC(=O)[C@H](CO)NC(=O)[C@H](Cc1c[nH]cn1)NC(=O)[C@H](CCCNC(=N)N)NC(=O)[C@H](CC(C)C)NC(=O)[C@H](Cc1ccccc1)NC(=O)[C@H](CCC(=O)O)NC(=O)[C@H](C)NC(=O)[C@H](CC(C)C)NC(=O)[C@H](CCCNC(=N)N)NC(=O)[C@H](CCC(N)=O)NC(=O)[C@@H](NC(=O)[C@H](C)NC(=O)[C@@H]1CSSC[C@H](NC(=O)[C@@H](N)CCCCNC(=O)CC[C@H](NC(=O)CC[C@H](NC(=O)CCCCCCCCCCCCCCCCCCC(=O)O)C(=O)O)C(=O)O)C(=O)N[C@@H](CC(N)=O)C(=O)N[C@@H]([C@@H](C)O)C(=O)N[C@@H](C)C(=O)N[C@@H]([C@@H](C)O)C(=O)N1)[C@@H](C)O)C(=O)N1CCC[C@H]1C(=O)N[C@@H](CO)C(=O)N[C@@H](CO)C(=O)N[C@H](C(=O)N[C@@H](CC(N)=O)C(=O)N[C@H](C(=O)NCC(=O)N[C@@H](CO)C(=O)N[C@@H](CCCNC(=N)N)C(=O)N[C@H](C(=O)N[C@@H](Cc1ccc(O)cc1)C(N)=O)[C@@H](C)O)C(C)C)[C@@H](C)O
notes: also called compound 89

hCTR funct. EC50: 19.2 nM
B5: N^ε1-[(4S)-4-carboxy-4-[[(4S)-4-carboxy-4-(19-carboxynonadecanoylamino)butanoyl]amino]butanoyl]-[Arg17,Pro21,Pro27,His34]-h-amylin (peptide)
peptide: K([γGlu-γGlu-C20 diacid])CNTATCATQRLANFLRHSSPNFGAIPSSTNVGHNTY-NH2
modifications: disulfide 2-7; N-terminus assumed
SMILES: CC[C@H](C)[C@H](NC(=O)[C@H](C)NC(=O)CNC(=O)[C@H](Cc1ccccc1)NC(=O)[C@H](CC(N)=O)NC(=O)[C@@H]1CCCN1C(=O)[C@H](CO)NC(=O)[C@H](CO)NC(=O)[C@H](Cc1c[nH]cn1)NC(=O)[C@H](CCCNC(=N)N)NC(=O)[C@H](CC(C)C)NC(=O)[C@H](Cc1ccccc1)NC(=O)[C@H](CC(N)=O)NC(=O)[C@H](C)NC(=O)[C@H](CC(C)C)NC(=O)[C@H](CCCNC(=N)N)NC(=O)[C@H](CCC(N)=O)NC(=O)[C@@H](NC(=O)[C@H](C)NC(=O)[C@@H]1CSSC[C@H](NC(=O)[C@@H](N)CCCCNC(=O)CC[C@H](NC(=O)CC[C@H](NC(=O)CCCCCCCCCCCCCCCCCCC(=O)O)C(=O)O)C(=O)O)C(=O)N[C@@H](CC(N)=O)C(=O)N[C@@H]([C@@H](C)O)C(=O)N[C@@H](C)C(=O)N[C@@H]([C@@H](C)O)C(=O)N1)[C@@H](C)O)C(=O)N1CCC[C@H]1C(=O)N[C@@H](CO)C(=O)N[C@@H](CO)C(=O)N[C@H](C(=O)N[C@@H](CC(N)=O)C(=O)N[C@H](C(=O)NCC(=O)N[C@@H](Cc1c[nH]cn1)C(=O)N[C@@H](CC(N)=O)C(=O)N[C@H](C(=O)N[C@@H](Cc1ccc(O)cc1)C(N)=O)[C@@H](C)O)C(C)C)[C@@H](C)O
notes: also called compound 86
